The record followed here is article PMC3159472.

pKd: −log10 of the molar value.

The target in this experiment is F-SSB-Ct peptide (SSB-Ct with an N-terminal fluoresceine moiety) (E. coli). In words: fluorescence polarisation.

As usually defined, the pKd is −log10 of the Kd, conventionally taken in molar units. With SSB–ExoI fusion protein, the negative logarithm of the Kd (pKd) is 5.96.
